The record followed here is doi:10.1101/2024.10.24.620072.

Experiment [1] deals with human (H3-H4)2 tetramer (human) (UniProt P68431). As to the kind of experiment: MST.
For experiment [2], the target named is fluorescently labeled H2a(G129C)-H2b dimer (human) (UniProt P04908). As to the kind of experiment: MST.

A word on the Kd: it is the constant that tells how readily two partners part at equilibrium. Take “human α-Synuclein, full-length (from UniProt P37840 1-140) (natural protein)”: the Kd in experiment [1] was found to be 50 nM.

On to “αSyn(1-103) (from UniProt P37840 1-103) (domain or fragment)”, for which the Kd in experiment [1] is 107 nM. Turning to “αSyn(1-131) (from UniProt P37840 1-131) (domain or fragment)”, the Kd in experiment [2] was found to be 32400 nM.

Consider “αSyn(121-140) peptide (from UniProt P37840 121-140)”, for which, in experiment [2], the KD of one of two binding sites was 500 nM and the KD of the other of two binding sites was 2600 nM.
